Biological target: BphP1-iB(GFP) (Rhodopseudomonas palustris | not stated)
Assay: light-induced relocalisation in live cells (epifluorescence microscopy); HeLa co-expressing BphP1-iB(GFP), mVenus-CAAX and mCherry-QPAS1; darkness against 740 nm light (1 mW cm^-2), 37 °C; mCherry signal moves from cytoplasm to plasma membrane

## mCherry-QPAS1
  half-time of the relocalisation from cytoplasm to plasma membrane: 33.6 s

Source: PMC6992714
